Source: patent US20250164487, “METHOD FOR […] ANALYTE USING POLYNUCLEOTIDE” (NATIONAL UNIVERSITY CORPORATION TOKYO UNIVERSITY OF …, published 2025)

Tests used:
[1] = biological target: T1, SARS-CoV-2 spike protein receptor-binding domain (RBD) (SARS-CoV-2, UniProt P0DTC2 P0DTC2:319-541); experiment: […]; PBS pH 7.4, room temperature
BSA = BSA (UniProt P02769 P02769:25-607)
[2] = biological target: T1, SARS-CoV-2 spike protein …

BSA, sequence (P02769 25-607, one chain of several): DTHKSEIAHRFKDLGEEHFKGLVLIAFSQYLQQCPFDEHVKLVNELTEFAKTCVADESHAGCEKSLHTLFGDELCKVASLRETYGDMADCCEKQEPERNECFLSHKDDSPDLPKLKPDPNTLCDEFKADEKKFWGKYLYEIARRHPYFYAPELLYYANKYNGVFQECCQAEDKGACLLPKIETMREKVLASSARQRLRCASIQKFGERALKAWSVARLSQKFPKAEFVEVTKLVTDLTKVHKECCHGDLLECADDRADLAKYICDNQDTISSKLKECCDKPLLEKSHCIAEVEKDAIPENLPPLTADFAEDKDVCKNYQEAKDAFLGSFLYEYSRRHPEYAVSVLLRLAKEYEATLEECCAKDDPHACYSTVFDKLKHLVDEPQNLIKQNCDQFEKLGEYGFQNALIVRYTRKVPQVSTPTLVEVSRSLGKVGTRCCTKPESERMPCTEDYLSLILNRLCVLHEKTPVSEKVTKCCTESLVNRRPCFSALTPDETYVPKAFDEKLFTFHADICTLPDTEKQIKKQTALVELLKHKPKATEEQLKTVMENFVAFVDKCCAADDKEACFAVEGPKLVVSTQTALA

Binder	Kd [1] [nM]	binding result (BSA)	binding result [2]
GGGGCTGCTCGGGATTGCGGATATGG (ssDNA) [RBD-46]	34.7	no binding	
AGGGGCTGCTCGGGATTGCGGATATGGA (ssDNA) [RBD-45]			binds
